Assay results reported in article PMC4160250 (PLoS ONE, 2014).

B1: His-tagged DC-UbP (natural protein, human, UniProt Q8WUN7 1-234, looked up)
chain: MGGCVGAQHDSSGSLNENSEGTGVALGRNQPLKKEKPKWKSDYPMTDGQLRSKRDEFWDTAPAFEGRKEIWDALKAAAHAFESNDHELAQAIIDGANITLPHGALTECYDELGNRYQLPVYCLAPPINMIEEKSDIETLDIPEPPPNSGYECQLRLRLSTGKDLKLVVRSTDTVFHMKRRLHAAEGVEPGSQRWFFSGRPLTDKMKFEELKIPKDYVVQVIVSQPVQNPTPVEN
notes: DC-UbP / UBTD2, human, full-length; vector pET22b(+); 15N-labelled (M9 medium) in the NMR titrations; also called His6-DC-UbP; full-length DC-UbP; source: E. coli, purified (Ni-NTA, Superdex-75)
B3: GST-fused UFD domain of UbE1 (residues 950-1058) (domain or fragment)
chain: not shown
notes: UbE1, residues 950-1058 (C-terminal Ub-fold domain, UFD), from the UbE1 that was cloned from a mouse cDNA library; vector pGEX-4T-3; also called GST-UFD; C-terminal Ub-fold domain; source: E. coli, purified
B4: UbE1, recombinant, purified (enzyme, mouse, UniProt Q02053 1-1058, looked up)
chain: MSSSPLSKKRRVSGPDPKPGSNCSPAQSALSEVSSVPTNGMAKNGSEADIDESLYSRQLYVLGHEAMKMLQTSSVLVSGLRGLGVEIAKNIILGGVKAVTLHDQGTTQWADLSSQFYLREEDIGKNRAEVSQPRLAELNSYVPVTAYTGPLVEDFLSSFQVVVLTNSPLEAQLRVGEFCHSRGIKLVVADTRGLFGQLFCDFGEEMVLTDSNGEQPLSAMVSMVTKDNPGVVTCLDEARHGFETGDFVSFSEVQGMIQLNGCQPMEIKVLGPYTFSICDTSNFSDYIRGGIVSQVKVPKKISFKSLPASLVEPDFVMTDFAKYSRPAQLHIGFQALHQFCALHNQPPRPRNEEDATELVGLAQAVNARSPPSVKQNSLDEDLIRKLAYVAAGDLAPINAFIGGLAAQEVMKACSGKFMPIMQWLYFDALECLPEDKEALTEEKCLPRQNRYDGQVAVFGSDFQEKLSKQKYFLVGAGAIGCELLKNFAMIGLGCGEGGEVVVTDMDTIEKSNLNRQFLFRPWDVTKLKSDTAAAAVRQMNPYIQVTSHQNRVGPDTERIYDDDFFQNLDGVANALDNIDARMYMDRRCVYYRKPLLESGTLGTKGNVQVVIPFLTESYSSSQDPPEKSIPICTLKNFPNAIEHTLQWARDEFEGLFKQPAENVNQYLTDSKFVERTLRLAGTQPLEVLEAVQRSLVLQRPQTWGDCVTWACHHWHTQYCNNIRQLLHNFPPDQLTSSGAPFWSGPKRCPHPLTFDVNNTLHLDYVMAAANLFAQTYGLTGSQDRAAVASLLQSVQVPEFTPKSGVKIHVSDQELQSANASVDDSRLEELKATLPSPDKLPGFKMYPIDFEKDDDSNFHMDFIVAASNLRAENYDISPADRHKSKLIAGKIIPAIATTTAAVVGLVCLELYKVVQGHQQLDSYKNGFLNLALPFFGFSEPLAAPRHQYYNQEWTLWDRFEVQGLQPNGEEMTLKQFLDYFKTEHKLEITMLSQGVSMLYSFFMPAAKLKERLDQPMTEIVSRVSKRKLGRHVRALVLELCCNDESGEDVEVPYVRYTIR
notes: also called purified UbE1; source: E. coli (vector pET28a), purified

Legend:
Conditions in all cases: both partners purified
[1] = target: B4; assay: NMR titration; 15N-labelled DC-UbP (100 uM) titrated stepwise with unlabelled USP5, UbE1, FH or SCCH; 1H-15N HSQC, 20 mM phosphate, 50 mM NaCl, pH 6.5, 298 K
[2] = target: B3; assay: NMR titration; 15N-labelled UbP_N or UbP_C titrated with GST-UFD at a molar ratio of 1:3; peak intensity changes
His-tagged DC-UbP [3] = target: B1; assay: NMR titration; 15N-labelled DC-UbP (20 uM in Fig. S4C) titrated with GST-UFD, up to 5:1; relative peak intensities
His-tagged DC-UbP [4] = target: B1; assay: NMR titration; 15N-labelled DC-UbP (100 uM) titrated stepwise with unlabelled USP5, UbE1, FH or SCCH; 1H-15N HSQC, 20 mM phosphate, 50 mM NaCl, pH 6.5, 298 K

Binder: B1
- binding result [1]: binds

B2: UbP_C (C-terminal part of DC-UbP, residues 129-234), His-tagged (domain or fragment, human, UniProt Q8WUN7 129-234, looked up)
chain: MIEEKSDIETLDIPEPPPNSGYECQLRLRLSTGKDLKLVVRSTDTVFHMKRRLHAAEGVEPGSQRWFFSGRPLTDKMKFEELKIPKDYVVQVIVSQPVQNPTPVEN
notes: 15N-labelled where it is the observed protein of an NMR titration, unlabelled where it is titrated into 15N-UBA1; also called UbL domain of DC-UbP; UbL; source: E. coli, purified (Ni-NTA, Superdex-75)
- binding result [2]: binds

Binder: B3
- mean relative peak intensity of the UBD domain of DC-UbP at 5:1 molar ratio (His-tagged DC-UbP [3]): 0.69
- mean relative peak intensity of the UbL domain of DC-UbP at 5:1 molar ratio (His-tagged DC-UbP [3]): 0.44

Binder: B4
- mean relative peak intensity of the UBD domain of DC-UbP at 1:1 molar ratio (free DC-UbP = 1) (His-tagged DC-UbP [4]): 0.54
- mean relative peak intensity of the UbL domain of DC-UbP at 1:1 molar ratio (free DC-UbP = 1) (His-tagged DC-UbP [4]): 0.39
